According to the nanobody polyreactivity screen of Harvey et al. (2022):

Experiment: yeast display, Sf9 membrane polyspecificity reagent, FACS + sequencing; frameworks hold sequencing errors
Method in brief: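 Polyreactivity labels are assigned by the sorting gate from which each nanobody was recovered. The gates were low and high (top ~1%), set on anti-HA fluorescence for expression and streptavidin fluorescence for reagent binding. Before sorting, galactose-induced (36–48 hours) yeast display cells were stained for 1 hour at 4 °C with 10% biotinylated, detergent-solubilized Sf9 membrane reagent.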

Sequence | polyreactivity (PSR sort gate)
QVQLVESGGGLVQAGGSLSLSCAASGSNFNVYVMGWYRQAPGKERELVAAITYRGASTYYADSVKGRFTFSRDNAKNTVYLQMNSLKPEDTAVYYCAARYGYRSVYRSYNSRPYDYWGQGTQVTVSS | high polyreactivity
QVQLVESGGGLVQAGGSLRLSCAASGFIFDQYDMGWYRQAPGKERELVAAISDSGGSTYYADSVKGRFTISRDNAKNTVYLQMNSLKPEDTAVYYCAAGSYLAFGGLWFYYWGQGTQVTVSS | high polyreactivity
QVQLVESVGGLVQAGGSLRLSCDASGYIFKNYAMGWYIQAPGKERELVAAINWSGGNTYYADSVKGRFTISRDNAKNTVYLQMNSLKPEDTAVYYCNAVSSLRSYGYNYCGQGTQVTVSS | low polyreactivity
QVQLVESGGGLVQAGGSLRLSCAASGRTFTYYAMGWSRQAPGKERELVAGISSGGGSTYYADSVKGRFTISRDNAKNSVYFQMNILNPEDTAVYYCATAKRQGCYSEYDYWGQGTQVTVSS | high polyreactivity
QVQLVESGGGLVQAGGSLRLSCAASGRTFYYYAMGWYRQAPGKEREYVASITWRGGRTYYADSVKGRFTISRDNAKNTVYLQMNSLKPEDTAVYYCAADGSYAIGGYGYWGQGTQVTVSS | high polyreactivity
QVQLEESGGCLVQAGGSLRLSCAASGIIFWDNALGWYRQAPGKERELVASINYSGGSTYYADSVKGRFTNSRDNAKNTVYLQMNSLKPEDTAVYYCAARTVTLDDWDYAYDYWVQGTQVTVSS | low polyreactivity
QVQLVESGGGLVQAGGSLRLSCAASGRIFAVNAMGWYRQAPGNERELVAAITRGGSTNYADSVKGRFTISRDNAKNTVYLQMNSLKPEDTAVYYCAARVYTSPPVRSAPTGYYYWGQGTQVTVSS | high polyreactivity
QVQLVESGGGLVQAGGSLRLICAASGSIFRNNARGWYRQAAGKERELVAVISRRSGNTYYADSVKGRFTISRDNAKNTVYLQMNSLKPEDTAVYYCAADYSKSSIRGDYWGQGTQVTVSS | low polyreactivity
QVQLVESGGGLVQAGGTLRLSCAASGRIFVINTMGWYRQAPGKERELVAAISRGGSTNYADSLKGRFTISRDNAKNTVYLQMNSLKPEDTAVYYCAATGYILFAGGGYDYWGQGTQVTVSS | low polyreactivity
QVQLVESGGGLVQAGGSLRLSCAASGSTFAYNAMGWYIQAPGKERELVAAISTSGGSTNYADSVKGRFTISRDMSKNTVYLQMNSLKPEVTAVYFCAARPKTPSITRYGYWGQGTHVTVSS | high polyreactivity
QVQLVESGGGLVQAGGSLRLSCAASGRTFRRYAMGWYRQAPGKERELVATITSNGGSTYYADSVKGRFTISRDNAKNTVYLQMNSLKPEDTAVYYCARDLTYYRSRYDYWGQGTQVTVSS | high polyreactivity
QVQLVESGGGLVQAGGSLRLSCAASGSIFRRYAMGWYRQAPGKERELVATITSTDSTNYADSVKGRFTISRDNAKNTVYLQMNSLKPEDTAVYYCAKRPYHYRRNSEYYYWGQGTQVTVSS | low polyreactivity
QVQLVESGGGLVQAGGSLRLSCAASGFIFRYYAMGWYRQAPGKERELVAAISSSGGCTYYADSVKGRFTISRDNSKNTVYLLMNRMKPEDTAVYFCAARDLRKLFSLYPYYYWGQGTHVTVSS | high polyreactivity
QVQLVESGGGLVQAGGSLRLSCAASGSTFYLYTMGWYRLAPGKERELVAAISVSGGSTFYADSVKGRFSISRDNAKNTVYLQKNSLKPEDTAVYYSAADGYLHAGHWRTYGYYYWGQGTQVTVSS | low polyreactivity
QVQLVESGGGLVQAGGSLRLSCAASGFTIVYYAMGWYRQAPGKERELVAVISSRGGSTYYADSVKGRFTISRDNAKNTVYLQMNSLKPEDTAVYYCAARGRGQPFVRYDYWGQGTQVTVSS | high polyreactivity
QVQLVESGGGLVQAGGSLRLSCAASGSIFPANAMGWYRQPPGKERELVAAISRRGGNTYYADSVKGRFTISRDNAKNTVYLQMNSLKPEDTAVYYCAAYYFYRRYDYWGQGTQVTVSS | high polyreactivity
QVQLVESGGGLVQAGGSLRLRCAASGRTFYYNVMGWYRQAPGKERELVATITSGASTNYADSVKGRFTISRDNAKNTVYLQMNSLKPEDTAVYYCNTEYYPRWYGPYSYYDFDSWGQGTEVTVSS | low polyreactivity
QVQLVETGGGLVQAGGSLRLSCAASGNIFRAYPMGWYRQAPGKERELVARINSGAITNYADSVKGRFTISRDNAKNTVYLQMNSLKPDDTAVYYCARDTQYPYYFLMDYWGQGTQVTVSS | low polyreactivity
QVQLEESGGGLVQAGDSLRLSCDASGSTFPGYAMGWYRPAPGKERELVAAIYKRGGSTRYADSVKGRFTISRDNAKNTVYLQMNSLKPEDTAVYYCAASYSYSGSGGGYWGQGTQVTVSS | high polyreactivity
QVQLVESGGGLVQAGGSLRLSCAASGSTFWFNGMGWYRQAPGKERELVAVITFSTGSTSYADSVKGRCTISRDDAKNTVYLQMNSLKPEDTAVYYCAAEYVIYYWFEWLDLDYWGQGTQVTVSS | high polyreactivity
QVQLVESGGGLVQAGGSLRLSCAASGGILHSYAMGWYRQAPGKERELVAAISGSGGSTYYADSVKGRFTISRDNAKNTVYLQMNSLKPEDTAVYYCNAVHHYPEHIGGGYWGQGTQVTVSS | low polyreactivity
QVQLVESGGGLVQAGGSLRLSCAASGRIFAQNAMGWYRQAPRNERELVAGISYGGGRTYYADSVKGRFTISRDKAKNTVYLQMNSLKPEDTAVYYCAKAVNSPRKYQLGNGYWGQGTQVTVSS | high polyreactivity

Sequence | polyreactivity (PSR sort gate)
QVQLVESGGGLVQAGGSLRLSCAASGLIFRYNAMGWYRQAPGKEMELVASITSDGSTNYADSVKGRFTISRDNAKNTVYLQMNSLKPEDTAVYYCAADGYTYWYYQLIPDYDYWGQGTQVTVSS | low polyreactivity
QVQLVESGGGLVQAGGSLRLSCAASGRIFSYYAMGWYRQAPGKEREMVAAISGNGGSTYYADSVKGRFTISRDNAKNTVYLQMNSLKPEDTAVYYCAADWWSSDWAYLYPYSYDYWGQGTQVTVSS | low polyreactivity
QVQLQESGGGLVQAGVSLRLSCAASGYISIEEDISWFCQAPGKERELVASITYGAITYYADSVKGRLTISSDNAKNTVYRQMNCLKPEDTAEYYCAVSYDYQQYYVSCGQGTQVTVSS | low polyreactivity
QVQLEESGGGLVQAGGSLRLSCAASARTIFGYAMGWYRQAPGKERELVAAINWGGASTYYADSVKGRFTISRDNAKNTVYLQMNSLKPEDTAVYYCAADSVPSRPTYGRYDYWGQGTQVTVSS | low polyreactivity
QVQLVESGGGLVQAGGSLRLSCAASGRTFHGYAMGWYRQAPGKERELVAAINASGGRTYYADSVKGRFTISRDNAKNTVYLQMNRLKPEDTAVYYCAVYSASFRYGLAYDYWGQGTQVTVSS | high polyreactivity
QVQLVESGGCLVQAGGSLRLSCAASGRTFINNAMGWYRQAPGKERELVAAISWDGGRTYYADSVKGRFTISRDNAKNTVYLQMNSLKPEDTAVYYCNAQPNYAYHGEDDYWGQGTQVTVSS | high polyreactivity
QVQLVESGGGLVQAGGSLRLSCAASGSTFSHYAMGWYRQAPGKERELVAAISTSGGSTYYADSVKGRFTISRDNAKNTVYLQMNSLKPEDTAVYYCAAAVPRQGNYGGYEYWGQGSQVTVSS | high polyreactivity
QVQLVESVGGLVQAGGSLRLSCAASGRTFFKYAMGWYRQAPGKERELVAAITASGGSTYYADSVKGRFTISRDNAKNTVYLQMNSLKPEDTAVYYCAARWRSVFWEYYYWGQGTQVTLSS | high polyreactivity
QVQLVESGGGLVQAGGSLRLSCAASGRIFRYYAMGWYRQAPGKERELVAAISSSGGSTYYADSVKGRFTISRDNAKNTVDLQMNSLKPEDTAVYYCAAKYSRRSSVSYYYWGQGTQVTVSS | high polyreactivity
QVQLVESGGGLVQEGGSLRLICAASGRIFFYYAMGWYRQAPGKERELVAAISQSGGSTYYADSVKGRFTISRDNAKNTVYLQMNSLKPEDPAVYYCNAAEPYYDTSAVAGDYWGQGTQVTVSS | low polyreactivity
QVQLVESGGGLVQAGGSLRLSCAASGLIFRSYAMGWYRQEPGKERELVARISIRGGSTYYADSVKGRFTISRDNAKNTVYLQMNSLKPEDTAVYYCAADYASWSNWGYEYWGQGTQVTVSS | high polyreactivity
QLQLVESVGGLVQAGGSLRLSCASSGRTFDYNAMGWYRQAPGKERELVARISNGDSTYADSVKGRFTISRDNAKNTVYLQMNSLKPVDTAVYYCAKSTRRGGVALGEYDYWGQGTQVTVSS | low polyreactivity
QVQLVESGGGLVQAGGSLRLSCAASGRIFPAYAMGWYKQAPGKERELVASIRRGGITYADSVKGRFTISRDNAKNTVYLQMNSLKPEDTAVYYCNADYRGWGYHMDYWGQGTKVTVSS | low polyreactivity
QVQLVESGGGLDQAGGSLRLSCAASGSTFGVYAMGWYRQAPGKERELVAAISSSTGSTYYADSVKGRFTISRDNAKNTVYLQMNSLKPEDTAVYYCAAEYDGPYYSFYPEQRYYWGQGTQVTVSS | low polyreactivity
QVQLVESGGGLVQAGGSLRLSCAASGITFGSYDMGWYRQAPGKERELVAAIDSDGGTYYADSVKGRFTISRDNAKNTVYLQMNSLKPEDTAVYYCAALLRSFPPYSFYYWGQGTQVTVSS | high polyreactivity
QDQLVESGGGLVQAGVSLRLRSAASGFISQENAMGWYRQAPGKDRELVATISGSVGITYYADSVKGRFTISRDNAKNTVYLQMNSLKPEDTAVYYCNKEISYLSWGYDYWGLGTQVTVSS | low polyreactivity
QVQLEESGGGLVQAGGSLRLSCAASGRTFSYYSMGCYRKAPGKERELVAAITSGGRTYYADSVKGRFTISRDNAKNTVYLQINSLKPEDTAVYYCAARWYARSLTRFNYWGQGTQVTVSS | high polyreactivity
QVQLVESGGRLVQAGGSLRLSCAASGSTIPYYTMGWYRQAPGKERELVAAIRYSGSSTYYADSVKGRFTISRDNAKNTVYLQMNSLKPEDTAVYYCAKTLWRRRGDRRYRVIEMDHWGQGTQVTVSS | low polyreactivity
QVQLVESGGGLVQAGGSLRLSCAASGGIFGRYAMGWYRQAPGKERELVAAISSRGGSTYYADSVKGRFTISRDNAKNTVYLQMNSLKPEDTAVYYCNALWVSYYTFRMDYWGQGTQVTVSS | high polyreactivity
QVQLVESGGGLVQAGGILRISCAASGFIFWKNAMGWYRQAPGKERELVAAISRGGSTYYADSVKGRFTISRDNAKKTVYLQMNSLKPEDTAFYYCNKVGGATDKYLYYYWGQATQVTVSS | high polyreactivity
QVQLVESGGAVVHAGGSLRLSCAASGFTFRYYDKGWYRQAHGKEMELVAAISSGGSTDYADSVKGRFTISRDNAKNTVYLQMNCLKPEDNAVYYCAADWWVVYTYDYWGPGTQVTVSS | low polyreactivity
